Experimental findings from article PMC2780912 are described below.

What is called Kd is the constant that tells how readily two partners part at equilibrium.

Data set [1] concerns the target GST-E2 (Hepatitis C virus) (UniProt P27958). The data set is described as follows: competition (flow cytometry). The settings on record: Flow cytometry: 250 nM aptamer, 1e6 cells, 37 C 15 min; selection buffer 25 mM Tris-HCl, 50 mM KCl, 200 mM NaCl, 0.2 mM EDTA, 5% glycerol, 0.5 mM DTT (pH not …); scale: % inhibition of E2 binding to Huh7.5.1 cells.
The target in data set [2] is HCV E2 on E2-CT26 cells (Hepatitis C virus (genotype 1a)) (UniProt P27958). The data set is described as follows: flow cytometry. The following applies: Flow cytometry: 250 nM aptamer, 1e6 cells, 37 C 15 min; selection buffer 25 mM Tris-HCl, 50 mM KCl, 200 mM NaCl, 0.2 mM EDTA, 5% glycerol, 0.5 mM DTT (pH not …).

As to GAATGAGGAATAATCTAGCTCCTTCGCTGA [ZE2], the binding signal in data set [1] was found to be 80. For the same sequence, the Kd in data set [2] was determined as 1.05 nM. In data set [2], TCCATTCATGTAACGAACATAGTTTTGGCA [ZE5] gave a Kd of 4.29 nM.

As for GGGCCTCGATTTAGTTCGCGGCCATAGGGC [ZE4], the Kd in data set [2] came to 8.85 nM. The same measure, in the same setting: as for CGCCGTATTAAGATTGGGAGACCTGGTAGA [ZE3], the figure is 3.22 nM.
